Reference: patent US20230348572A1

Molecular target: RBD (amino acids 340-538 NITN.GPKK) expressed on the surface of MDCK-SIAT1 cells (SARS-CoV-2) (UniProt P0DTC2)

## H11-D4-Fc (Fc fusion)
  IC50: 28 nM
